Experimental findings from patent publication US20080058278A1, “ATTENUATION OF HYPEROXIA-INDUCED CELL DEATH WITH MITOCHONDRIAL ALDEHYDE DEHYDROGENASE” (THE CHILDREN'S MERCY HOSPITAL, priority 2006, published 2008) are described below.

In data set [1] the test system is Neo-A549 cells. As to the kind of experiment: Necrotic cell death, trypan blue exclusion assay. It counts as cell-based, human. To be noted: 10 μM inhibitor pretreatment 30 minutes. The source says:
(§1) The cultured media were collected and saved.

The test system of data set [2] is mtALDH-A549 cells. The data set can be described thus: Necrotic cell death, trypan blue exclusion assay. The class given is cell-based, human. To be noted: for necrotic cell death (percentage of stained cells to total cells): mtALDH-A549 cells, 10 μM inhibitor pretreatment 30 minutes; for necrotic cell death, trypan blue exclusion: mtALDH overexpression (mtALDH-A549).
Source text: (§2) Plasmid Construction and Transfection: For human mt ALDH plasmid construction, full-length human mtALDH cDNA without stop codon was amplified from a human lung cDNA library (Clontech, Mountain View Calif.) by RT-PCR using following primers, sense: […] (SEQ ID NO. 1), antisense: […] (SEQ ID NO. 2). The resulting human mtALDH cDNA was subcloned into the plasmid vector pcDNA3.1 (Invitrogen, Carlsbad, Calif.). The mtALDH sequence (SEQ ID NO. 3) was confirmed by direct nucleotide sequencing. mtALDH-pcDNA3 and empty pcDNA3.1 plasmids were transfected into A549 cells using LipofectAMINE (Invitrogen, Carlsbad, Calif.). The transfected cells were then selected by G418 sulfate at 500 μg/mL for ten days. A single clone was selected by limited dilution and mtALDH protein expression was confirmed by Western blotting with anti-V5 antibody (Invitrogen, Carlsbad, Calif.).
as §1

Data set [3] concerns mtALDH-A549 cells. The class given is cell-based. The conditions noted are these: 10 μM inhibitor pretreatment 30 minutes, 48-hour hyperoxic exposure (95% O2, 5% CO2).
Source text: as §2, §1

Data set [4] deals with Neo-A549 cells. The conditions noted are these: 10 μM inhibitor pretreatment 30 minutes, 48-hour hyperoxic exposure (95% O2, 5% CO2).
Experimental: Cell culture and Cell Treatment: A549 cells were purchased from American Type culture collection (ATCC, Manassas, Va.) and grown in Dulbecco's Modified Eagle Medium (DMEM) containing 10% fetal bovine serum, 50 μg/mL penicillin and 50 μg/mL streptomycin in 5% CO2 at 37° C. Normoxic exposure of the cells was conducted under room air and 5% CO2 in a humidified cell culture incubator at 37° C. Hyperoxic exposure of the cells was conducted in a humidified chamber (Billups and Rothenberg, Del Mar, Calif.) and the chamber was flushed with 95% O2, 5% CO2 (hyperoxia) at a flow rate of 10 liters per minute for 15 minutes prior to incubation at 37° c. In U0126 and LY294002 pretreatment experiments, cells were treated with or without 10 μM U0216 or LY294002 (two well-known inhibitors) for 30 minutes prior to normoxic or hyperoxic exposure.
The lactate dehydrogenase (LDH) assay kit was from Biovision (Mountain View, Calif.) and LDH activity was measured per manufacture's instruction. Briefly, cells were incubated in an incubator (5% CO2, 37° C.) for the appropriate time of treatment. The cultured media were collected and saved. […] The absorbance of all samples at 490 nm was measured using a microplate reader. The cytotoxicity was determined by the percentage of LDH activity in cultured medium over combined LDH activities of the cultured medium and cell lysate.
The subject of data set [5] is mtALDH-A549 cells. The data set can be described thus: Apoptotic cell death, Annexin V staining and flow cytometry. It counts as cell-based, human. To be noted: mtALDH overexpression (mtALDH-A549), 48-hour hyperoxic treatment; Neo-A549 0.84%. On the procedure: Analysis of Apoptotic Cells: The Apoptosis Detection kit was from R&D System (Minneapolis, Minn.). Treated cells were trypsinized and collected by centrifugation at 500×g for 5 minutes. Cells were washed with cold PBS once and resuspended in 100 uL binding buffer containing 10 mM HEPES pH 7.4, 150 mM NaCl, 5 mM KCl, 1 mM MgCl2 and 1.8 mM CaCl2. Cells were stained with Annexin V-FITC (0.05 μg per sample) for 15 minutes according to manufacturer's instructions. The stained cells were then subjected to flow cytometry analysis.
For orientation: In flow cytometry, cells or beads pass a laser one at a time.

Data set [6] has as its system mtALDH-A549 cells. The data set can be described thus: Intracellular and mitochondrial ROS levels by flow cytometry. It counts as cell-based, human. The procedure: Assessment of Intracellular and Mitochondrial ROS Levels: After normoxic or hyperoxic treatment, cultured cells were stained with 10 μM of 2′,7′-dicholordihydrofluorescein diacetate, succinimidyl ester (OxyBURST® Green H2DCFDA (2′,7′-dichlorodihydrofluorescin diacetate)), SE, Molecular Probe, Oreg.) for 10 minutes. The stained cells were washed three times with PBS and then trypsinized with 0.025% trypsin and 0.05% EDTA. The resuspended cells were subjected to fluorescent intensity measured by flow cytometry. For mitochondria-derived ROS measurement, cells were incubated with 10 μM dihydrorhodamaine 123 (Molecular Probe, OR) for 15 minutes. The stained cells were washed three times with PBS and then trypsinized with 0.25% trypsin, 0.05% EDTA. The resuspended cells were subjected to rhodamine 123 fluorescent intensity measurement by flow cytometry. Statistical Analysis: The results are expressed as the mean±SEM of data obtained from two or more experiments; or where appropriate, as mean±SD. Statistical analysis was performed using the student t test for paired comparisons and ANOVA for multiple comparisons. A value of p<0.05 was considered significant.

For another data set, the system named is ERK. As to the kind of experiment: ERK phosphorylation, Western blotting. It counts as cell-based, human. The conditions noted are these: 48-hour normoxic conditions, normalized by total ERK. The procedure: Western Blotting Analysis: Antibodies were purchased from Cell Signaling Technology (Beverly, Mass.) and they were used according to manufacturer's instructions. Cultured cells after treatment were washed with cold PBS three times, and the 300 μl of sample lysis buffer (62.5 mM Tris-HCl pH 6.8, 2% w/v SDS, 10% glycerol, 200 mM dithiothreitol, and protease cocktails) was added to each plate. Cell lysates were centrifuged at 12,000×g for 10 minutes. The supernatants were saved for analysis. Protein concentration was determined by bicinchoninic acid (BCA) protein assay kit (Sigma, St. Louis, Mo.). Samples containing 50 μg of protein in loading sample buffer were boiled for 5 minutes and loaded on 12% Tris-Glycine SDS-PAGE gels. Gels were run at 120 V for approximately two hours and transferred overnight at 20 V to nitrocellulose membranes. Membranes were incubated with the blocking buffer containing 5% non-fat mile in PBST (0.1% Tween-20 in PBS) for one hour, washed with PBST and incubated overnight with the primary antibody against either phosphorylated ERK or phosphorylated Akt (Ser473). […] Phosphorylated ERK and phosphorylated Akt protein band intensities on autoradiogram were analyzed with Image-Quant (Molecular Dynamics, Sunnyvale, Calif.) and normalized by nonphosphorylated ERK, nonphosphorylated Akt or β-actin in the same sample, respectively.
Background: A western blot detects proteins with antibodies after separation by electrophoresis.

A further data set concerns Akt. As to the kind of experiment: Akt phosphorylation and total Akt, Western blotting. It counts as cell-based, human. The procedure:
Western Blotting Analysis: Antibodies were purchased from Cell Signaling Technology (Beverly, Mass.) and they were used according to manufacturer's instructions. Cultured cells after treatment were washed with cold PBS three times, and the 300 μl of sample lysis buffer (62.5 mM Tris-HCl pH 6.8, 2% w/v SDS, 10% glycerol, 200 mM dithiothreitol, and protease cocktails) was added to each plate. Cell lysates were centrifuged at 12,000×g for 10 minutes. The supernatants were saved for analysis. Protein concentration was determined by bicinchoninic acid (BCA) protein assay kit (Sigma, St. Louis, Mo.). Samples containing 50 μg of protein in loading sample buffer were boiled for 5 minutes and loaded on 12% Tris-Glycine SDS-PAGE gels. Gels were run at 120 V for approximately two hours and transferred overnight at 20 V to nitrocellulose membranes. Membranes were incubated with the blocking buffer containing 5% non-fat mile in PBST (0.1% Tween-20 in PBS) for one hour, washed with PBST and incubated overnight with the primary antibody against either phosphorylated ERK or phosphorylated Akt (Ser473). The membranes were washed in PBST and proteins were visualized using horseradish peroxidase (HRP)-conjugated anti-rabbit IgG and the enhanced chemiluminescence (Amersham Bioscience, Piscataway, N.J.). The membranes were stripped using a standard stripping solution (62.5 mM Tris-HCl, pH 6.8, 2% SDS and 100 mM β-mercaptoethanol) at 50° C., and reprobed with nonphosphorylated ERK, nonphosphorylated Akt and β-actin antibodies. Phosphorylated ERK and phosphorylated Akt protein band intensities on autoradiogram were analyzed with Image-Quant (Molecular Dynamics, Sunnyvale, Calif.) and normalized by nonphosphorylated ERK, nonphosphorylated Akt or β-actin in the same sample, respectively.

The target of the next data set is T1, mtALDH (Homo sapiens, UniProt P05091).
T1 construct: endogenous in cells; host or cells: A549 human lung type II epithelial cells (isolated mitochondrial protein or cell homogenate supernatant)
T1 sequence (P05091 18-517): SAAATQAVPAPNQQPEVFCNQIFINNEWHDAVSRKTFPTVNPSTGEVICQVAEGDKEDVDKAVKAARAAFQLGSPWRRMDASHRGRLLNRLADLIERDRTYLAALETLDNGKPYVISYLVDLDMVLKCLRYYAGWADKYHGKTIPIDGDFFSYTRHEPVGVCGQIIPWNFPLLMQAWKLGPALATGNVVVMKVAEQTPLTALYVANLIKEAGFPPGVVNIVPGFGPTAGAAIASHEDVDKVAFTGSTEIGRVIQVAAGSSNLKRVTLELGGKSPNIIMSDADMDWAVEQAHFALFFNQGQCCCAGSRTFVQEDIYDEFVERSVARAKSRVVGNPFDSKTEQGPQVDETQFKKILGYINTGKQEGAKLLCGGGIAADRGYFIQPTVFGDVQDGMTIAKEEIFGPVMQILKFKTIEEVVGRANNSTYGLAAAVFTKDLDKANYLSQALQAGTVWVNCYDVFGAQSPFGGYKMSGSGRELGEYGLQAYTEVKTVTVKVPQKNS
As to the kind of experiment: mtALDH activity assay (NADH formation at 340 nm). It counts as cell-based. The conditions noted are these: cell homogenate supernatant, p<0.01, n=6. On the procedure:
mtALDH Activity Assay: mtALDH activity was measured as described previously (9). Neo-A549 and mtALDH A549 cells cultured on plates were collected in buffer of 50 mM Tris-HCl, pH 8.5. Resuspended cells were sonicated at setting 4 for 5 seconds by VirSonic sonicator from VirTis (Gardiner, N.Y.). The cell homogenates were centrifuged at 12,000×g for 10 minutes. The supernatants were saved and protein concentration was determined. Mitochondria were isolated from cultured cells using a mitochondria isolation kit from Pierce (Rockford, Ill.). The enzyme activity assay was carried out in 100 μL of 50 mM Tris-HCl, pH 8.5 containing 50 μg prepared protein, 15 μM propionaldehyde, 1 mM NAD and 1 mM 4-methylpyrazole. The ALDH activity was determined by spectrometer for NADH formation at 340 nm.

Setting [7] is: 48-hour hyperoxic exposure (95% O2, 5% CO2).

As for `O=c1cc(N2CCOCC2)oc2c(-c3ccccc3)cccc12` [LY294002], the “necrotic cell death (percentage of stained cells to total cells)” value in the data set on Neo-A549 cells [1] (setting [7]) is recorded as 86.6%; in the data set with Neo-A549 cells [1] (48-hour normoxic exposure), 9.0%; in the data set on mtALDH-A549 cells [2] (setting [7]), 28.0%; in the data set on mtALDH-A549 cells [2] (48-hour normoxic exposure) it was 4.3%.

As for `N#CC(=C(/N)Sc1ccccc1N)/C(C#N)=C(\N)Sc1ccccc1N` [U0126], the “necrotic cell death (percentage of stained cells to total cells)” value with Neo-A549 cells [1] (setting [7]) was 44.5%; in the data set on Neo-A549 cells [1] (48-hour normoxic exposure), 12.6%; in the data set on mtALDH-A549 cells [2] (setting [7]), 26.0%; in the data set with mtALDH-A549 cells [2] (48-hour normoxic exposure) it was 11.6%. For the same molecule, the “necrotic cell death (LDH cytotoxicity)” value in the data set with mtALDH-A549 cells [3] worked out at 9.4%; in the data set with Neo-A549 cells [4], 14.1%.

B1: mtALDH: human mitochondrial aldehyde dehydrogenase (SEQ ID NO. 3) overexpressed as V5 fusion protein in A549 cells by pcDNA3.1 plasmid transfection (protein, listed as Homo sapiens)
chain: MLRAAARFGPRLGRRLLSAAATQAVPAPNQQPEVFCNQIFINNEWHDAVSRKTFPTVNPSTGEVICQVAEGDKEDVDKAVKAARAAFQLGSPWRRMDASHRGRLLNRLADLIERDRTYLAALETLDNGKPYVISYLVDLDMVLKCLRYYAGWADKYHGKTIPIDGDFFSYTRHEPVGVCGQIIPWNFPLLMQAWKLGPALATGNVVVMKVAEQTPLTALYVANLIKEAGFPPGVVNIVPGFGPTAGAAIASHEDVDKVAFTGSTEIGRVIQVAAGSSNLKRVTLELGGKSPNIIMSDADMDWAVEQAHFALFFNQGQCCCAGSRTFVQEDIYDEFVERSVARAKSRVVGNPFDSKTEQGPQVDETQFKKILGYINTGKQEGAKLLCGGGIAADRGYFIQPTVFGDVQDGMTIAKEEIFGPVMQILKFKTIEEVVGRANNSTYGLAAAVFTKDLDKANYLSQALQAGTVWVNCYDVFGAQSPFGGYKMSGSGRELGEYGLQAYTEVKTVTVKVPQKNS
modifications: V5 tag
As for B1, the “necrotic cell death, trypan blue exclusion” value was found to be 6.5% in the data set on mtALDH-A549 cells [2] (24-hour hyperoxic exposure, Neo-A549 25.3%); 9.1% in the data set on mtALDH-A549 cells [2] (48-hour hyperoxic exposure, Neo-A549 50.5%); 15.1% in the data set with mtALDH-A549 cells [2] (72-hour hyperoxic exposure, Neo-A549 52.4%). Moreover, in the data set on mtALDH-A549 cells [5], the “apoptotic cell death (Annexin V positive cells)” value is reported as 0.48%. Also, the “intracellular ROS level (H2DCFDA staining)” value with mtALDH-A549 cells [6] (24-hour hyperoxia) is reported as “increased only approximately two fold”. In the data set on mtALDH-A549 cells [6] (24-hour hyperoxia, p<0.001), the “intracellular ROS level versus Neo-A549 cells” value is reported as “significantly decreased”. Also, the “mitochondrial ROS level (dihydrorhodamine 123) versus Neo-A549 cells” value in the data set with mtALDH-A549 cells [6] (24-hour hyperoxic exposure, p<0.001) is “significantly decreased”. For the same molecule, the “ERK phosphorylation in mtALDH-A549 cells compared to Neo-A549 cells” value in the data set with ERK was “seven-fold increase”. Also, in the data set with Akt (0, 24 and 48-hour hyperoxic exposure), the “Akt phosphorylation in mtALDH-A549 cells versus Neo-A549 cells” value was 2-3 times. For the same molecule, the “phosphorylated Akt level in mtALDH-A549 cells versus Neo-A549 cells” value with Akt (first 24-hour culture under normoxic conditions) was “two-fold higher”. Also, the “total Akt in mtALDH-A549 cells compared to Neo-A549 cells” value with Akt (prior to hyperoxic treatment (0 hour)) is “about 1.8 fold”. Also, in the data set with mtALDH, the “total mtALDH activity in mtALDH-A549 cells compared to Neo-A549 cells” value is “increased more than two fold”.
